Test results from doi:10.1101/2024.02.23.581826 (bioRxiv, 2024).
Values joined by “and” are separate entries in the source; they are usually repeats but may differ in a detail not shown here. Equal values may be shown once. Read-outs that look alike come from different tables or passages of the source.

What was measured:
Test in all cases: SPR
[1] = molecular target: T1, isolated CNBH domain of mouse EAG1 (mEAG1) channels, residues 552-708 (mouse, UniProt Q60603 552-708)
T1 sequence (looked up): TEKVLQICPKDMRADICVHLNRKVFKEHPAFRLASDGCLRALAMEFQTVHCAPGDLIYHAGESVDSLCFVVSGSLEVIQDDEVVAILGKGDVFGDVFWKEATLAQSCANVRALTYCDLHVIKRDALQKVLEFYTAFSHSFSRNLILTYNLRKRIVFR

[2] = molecular target: T1, isolated CNBH domain of mouse EAG1 …; remark: listed apart in the source
[3] = molecular target: T1, isolated CNBH domain of mouse EAG1 …; remark: listed apart in the source
[4] = molecular target: T1, isolated CNBH domain of mouse EAG1 …; remark: listed apart in the source

Kd [1]: 900 nM and 500 nM
Kd [2]: 2500 nM and 2900 nM
Kd [3]: 1600 nM
Kd [4]: 1800 nM
B1: isolated PAS domain of mouse EAG1 (mEAG1) channels, residues 7-136 (domain or fragment, UniProt Q60603 7-136, looked up)
chain: RRGLVAPQNTFLENIVRRSNDTNFVLGNAQIVDWPIVYSNDGFCKLSGYHRAEVMQKSSACSFMYGELTDKDTVEKVRQTFENYEMNSFEILMYKKNRTPVWFFVKIAPIRNEQDKVVLFLCTFSDITAF
